According to article PMC12112095, “Insights into Chemoreceptor MCP2201-Sensing D-Malate” (International Journal of Molecular Sciences, 2025):

Tests used:
[1] = target: ligand-binding domain of MCP2201 (MCP2201 LBD) (Comamonas testosteroni CNB-1); test: AUC; in the presence of D-malate; Beckman XL-I, 60,000 x g, 7 h, 4 °C
[2] = target: ligand-binding domain of MCP2201 (MCP2201 LBD) (Comamonas testosteroni CNB-1); test: AUC; ligand-free; Beckman XL-I, 60,000 x g, 7 h, 4 °C
[3] = target: ligand-binding domain of MCP2201 (MCP2201 LBD) (Comamonas testosteroni CNB-1); test: ITC; dilution: 1.1 mM protein in 10 mM D-malate, 20 mM Tris pH 7.5, 150 mM NaCl injected into the same buffer, 25 °C; oligomer dissociation model; dimer to monomers
[4] = target: ligand-binding domain of MCP2201 (MCP2201 LBD) (Comamonas testosteroni CNB-1); test: AUC; in the presence of L-malate; Beckman XL-I, 60,000 x g, 7 h, 4 °C
MCP2201 [5] = target: T1, MCP2201 (Comamonas thiooxydans, UniProt A0ABF7PFR0, T105A); test: ITC; assay type: binding
T1 construct: gene CtCNB1_2201; T105A LBD

MCP2201 [6] = target: T2, MCP2201 (Comamonas thiooxydans, UniProt A0ABF7PFR0); test: analytical ultracentrifugation (ligand-induced LBD dimerization); assay type: binding
T2 construct: gene CtCNB1_2201; LBD (residues 58–203), N-terminal His6-tag
T2 sequence (A0ABF7PFR0 58-203): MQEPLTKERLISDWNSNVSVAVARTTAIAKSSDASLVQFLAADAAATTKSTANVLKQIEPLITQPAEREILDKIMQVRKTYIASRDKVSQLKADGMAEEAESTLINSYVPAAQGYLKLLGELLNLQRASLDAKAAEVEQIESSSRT

[7] = target: MCP2201 LBD mutant T105A (T105A LBD) (Comamonas testosteroni CNB-1); test: AUC; in the presence of D-malate; Beckman XL-I, 60,000 x g, 7 h, 4 °C
[8] = target: MCP2201 LBD mutant T105A (T105A LBD) (Comamonas testosteroni CNB-1); test: AUC; ligand-free; Beckman XL-I, 60,000 x g, 7 h, 4 °C
[9] = target: MCP2201 LBD mutant T105A (T105A LBD) (Comamonas testosteroni CNB-1); test: AUC; in the presence of citrate; Beckman XL-I, 60,000 x g, 7 h, 4 °C
MCP2201 [10] = target: T2, MCP2201; test: ITC; crystal structure at […] Å; assay type: binding

Compound “ligand-binding domain of MCP2201 (MCP2201 LBD) (domain or fragment)” has a stoichiometry N [1] of 2, a stoichiometry N [2] of 2 and a Kd [3] of 0.027 µM. It also gave a stoichiometry N [4] of 2.
With O=C(O)CC(O)(CC(=O)O)C(=O)O [citrate] the Kd (MCP2201 [5]) was 670 ± 270 µM.
In the case of O=C(O)CC(O)C(=O)O (stereo in doubt) [L-malate], the “analytical ultracentrifugation (ligand-induced LBD dimerization)” value (MCP2201 [6]) is reported as “the D-malate-bound MCP2201 LBD predominately occurred as a dimer, the same as the L-malate-bound LBD (Figure 3B)”.
For “MCP2201 LBD mutant T105A (T105A LBD) (domain or fragment)”, the stoichiometry N [7] was 2, the stoichiometry N [8] was 2 and the stoichiometry N [9] was 2.
O=C(O)C[C@@H](O)C(=O)O [D-malate] was tested, and the Kd (MCP2201 [10]) was 40 ± 3.3 µM and the Kd (MCP2201 [5]) was 5.5 ± 0.01 µM.
